Legend:
HLA-B*27:05 [1] = assay: IEDB peptide-MHC binding, purified MHC/direct/fluorescence; filed as Kd, often an IC50 or EC50 that approximates it; ≥ and ≤ were set here for values at or beyond the usual limits of such assays
HLA-B*15:01 = assay: as above; details: source organism: Salmonella enterica
HLA-B*08:01 = assay: as above; details: source organism: Salmonella enterica subsp. enterica serovar Typhimurium str. LT2
HLA-A*03:01 = assay: as above
HLA-A*02:12 [2] = assay: as above
HLA-A*02:16 [3] = assay: as above
HLA-B*07:02 = assay: as above; details: source organism: Salmonella enterica
HLA-B*46:01 = assay: as above
HLA-A*02:11 [4] = assay: as above
HLA-A*02:19 [5] = assay: as above
HLA-A*02:06 [6] = assay: as above
HLA-B*44:02 = assay: as above; details: source organism: Salmonella enterica
HLA-B*58:01 = assay: as above; details: source organism: Salmonella enterica
HLA-A*02:01 [7] = assay: as above
HLA-B*40:01 = assay: as above; details: source organism: Salmonella enterica
HLA-A*02:50 = assay: IEDB peptide-MHC binding, purified MHC/competitive/fluorescence; filed as Kd, often an IC50 or EC50 that approximates it; ≥ and ≤ were set here for values at or beyond the usual limits of such assays
HLA-B*35:01 = assay: IEDB peptide-MHC binding, cellular MHC/competitive/fluorescence; ≥ and ≤ were set here for values at or beyond the usual limits of such assays; details: source organism: Mycobacterium tuberculosis H37Rv
HLA-C*15:02 = assay: IEDB peptide-MHC binding, purified MHC/direct/fluorescence; filed as Kd, often an IC50 or EC50 that approximates it; ≥ and ≤ were set here for values at or beyond the usual limits of such assays; details: source organism: Bacillus anthracis str. A2012
HLA-C*07:02 = assay: as above; details: source organism: Bacillus anthracis str. A2012
HLA-C*05:01 = assay: as above; details: source organism: Bacillus anthracis str. A2012
HLA-B*45:06 = assay: IEDB peptide-MHC binding, purified MHC/competitive/fluorescence; filed as Kd, often an IC50 or EC50 that approximates it; ≥ and ≤ were set here for values at or beyond the usual limits of such assays; details: source organism: Bacillus anthracis str. A2012
HLA-B*15:02 = assay: as above
HLA-B*15:42 = assay: as above; details: source organism: Bacillus anthracis str. A2012
HLA-C*14:02 = assay: as above; details: source organism: Bacillus anthracis str. A2012
HLA-B*83:01 = assay: as above; details: source organism: Bacillus anthracis str. A2012
HLA-B*27:20 = assay: as above; details: source organism: Bacillus anthracis str. A2012
HLA-A*02:03 = assay: as above; details: source organism: Encephalitozoon cuniculi GB-M1
HLA-A*02:12 [8] = assay: as above; details: source organism: Encephalitozoon cuniculi GB-M1
HLA-A*02:16 [9] = assay: as above; details: source organism: Encephalitozoon cuniculi GB-M1
HLA-A*69:01 [10] = assay: as above; details: source organism: Encephalitozoon cuniculi GB-M1
HLA-A*02:11 [11] = assay: as above; details: source organism: Encephalitozoon cuniculi GB-M1
HLA-A*02:19 [12] = assay: as above; details: source organism: Encephalitozoon cuniculi GB-M1
HLA-A*02:06 [13] = assay: as above; details: source organism: Encephalitozoon cuniculi GB-M1
HLA-A*02:01 [14] = assay: as above; details: source organism: Encephalitozoon cuniculi GB-M1
HLA-B*27:05 [15] = assay: IEDB peptide-MHC binding, purified MHC/competitive/fluorescence; ≥ and ≤ were set here for values at or beyond the usual limits of such assays; details: source organism: hepatitis C virus genotype 1a
HLA-A*26:01 = assay: IEDB peptide-MHC binding, purified MHC/direct/fluorescence; filed as Kd, often an IC50 or EC50 that approximates it; ≥ and ≤ were set here for values at or beyond the usual limits of such assays; details: source organism: Entamoeba histolytica HM-1:IMSS
HLA-A*24:03 = assay: as above; details: source organism: Entamoeba histolytica HM-1:IMSS
HLA-B*39:01 = assay: as above; details: source organism: Entamoeba histolytica HM-1:IMSS
HLA-B*15:17 = assay: as above; details: source organism: Entamoeba histolytica HM-1:IMSS
HLA-A*69:01 [16] = assay: as above; details: source organism: Entamoeba histolytica HM-1:IMSS
HLA-B*57:01 = assay: as above; details: source organism: Entamoeba histolytica HM-1:IMSS
HLA-A*29:02 = assay: as above; details: source organism: Entamoeba histolytica HM-1:IMSS
HLA-B*27:03 = assay: as above; details: source organism: Entamoeba histolytica HM-1:IMSS
HLA-B*51:01 = assay: as above; details: source organism: Entamoeba histolytica HM-1:IMSS
HLA-B*73:01 = assay: as above; details: source organism: Giardia lamblia ATCC 50803
HLA-B*48:01 = assay: as above; details: source organism: Giardia lamblia ATCC 50803
[17] = source organism: Salmonella enterica
[18] = source organism: Salmonella enterica subsp. enterica serovar Typhimurium str. LT2
[19] = source organism: Entamoeba histolytica HM-1:IMSS

**Q.** What does the source list for WTLETLPRV?
**A.** Kd (HLA-B*27:05 [1]; [17]): ≥ 20000 nM; Kd (HLA-B*15:01): ≥ 20000 nM; Kd (HLA-B*08:01): ≥ 20000 nM; Kd (HLA-A*03:01; [17]): ≥ 20000 nM; Kd (HLA-A*02:12 [2]; [18]): ≤ 1 nM; Kd (HLA-A*02:16 [3]; [18]): ≤ 1 nM; Kd (HLA-B*07:02): ≥ 20000 nM; Kd (HLA-B*46:01; [17]): ≥ 20000 nM; Kd (HLA-A*02:11 [4]; [18]): ≤ 1 nM; Kd (HLA-A*02:19 [5]; [18]): 4 nM; Kd (HLA-A*02:06 [6]; [18]): ≤ 1 nM; Kd (HLA-B*44:02): ≥ 20000 nM; Kd (HLA-B*58:01): ≥ 20000 nM; Kd (HLA-A*02:01 [7]; [17]): 28.7 nM; Kd (HLA-B*40:01): ≥ 20000 nM; Kd (HLA-A*02:50; source organism: Salmonella enterica subsp. enterica serovar Typhi): 9.4 nM

**Q.** LPAKFLEGF was tested. Which IC50 (HLA-B*35:01) did it give?
**A.** Its IC50 is 700 nM.

**Q.** How did the Kd (HLA-C*15:02) turn out when WMYYPRSPV was run?
**A.** The Kd was at least 20000 nM.

**Q.** And the Kd (HLA-C*07:02)?
**A.** The Kd was 667 nM.

**Q.** And the Kd (HLA-C*05:01)?
**A.** Its Kd is at least 20000 nM.

**Q.** And the Kd (HLA-B*45:06)?
**A.** Its Kd is at least 5000 nM.

**Q.** What about the Kd (HLA-B*15:02; source organism: Bacillus anthracis str. A2012) of the same sequence?
**A.** The Kd was 391 nM.

**Q.** And the Kd (HLA-B*15:42)?
**A.** The Kd was at least 5000 nM.

**Q.** What about the Kd (HLA-C*14:02) of the same sequence?
**A.** The Kd was 6.8 nM.

**Q.** And the Kd (HLA-B*83:01)?
**A.** Its Kd is at least 5000 nM.

**Q.** And the Kd (HLA-B*27:20)?
**A.** The Kd was 0.2 nM.

**Q.** GMRVLGTNY was tested. Which Kd (HLA-B*15:02; source organism: Vibrio cholerae 2740-80) did it give?
**A.** The Kd was 229 nM.

**Q.** Which Kd (HLA-A*02:03) does the source give for GVYGGLCLA here?
**A.** Its Kd is 1.6 nM.

**Q.** What about the Kd (HLA-A*02:12 [8]) of the same sequence?
**A.** Its Kd is 122 nM.

**Q.** And the Kd (HLA-A*02:16 [9])?
**A.** The Kd was at most 1 nM.

**Q.** What about the Kd (HLA-A*69:01 [10]) of the same sequence?
**A.** Its Kd is 423 nM.

**Q.** And the Kd (HLA-A*02:11 [11])?
**A.** The Kd was at most 1 nM.

**Q.** What about the Kd (HLA-A*02:19 [12]) of the same sequence?
**A.** The Kd was 486 nM.

**Q.** What about the Kd (HLA-A*02:06 [13]) of the same sequence?
**A.** The Kd was at most 1 nM.

**Q.** What about the Kd (HLA-A*02:50; source organism: Encephalitozoon cuniculi GB-M1) of the same sequence?
**A.** Its Kd is 0.3 nM.

**Q.** And the Kd (HLA-A*02:01 [14])?
**A.** Its Kd is 2.5 nM.

**Q.** For GRAVICGKY, which IC50 (HLA-B*27:05 [15]) is on record?
**A.** The IC50 was 32 nM.

**Q.** For RQRHYFDSA, which Kd (HLA-A*26:01) is on record?
**A.** Its Kd is at least 20000 nM.

**Q.** What about the Kd (HLA-A*24:03) of the same sequence?
**A.** Its Kd is at least 20000 nM.

**Q.** What about the Kd (HLA-B*39:01) of the same sequence?
**A.** The Kd was at least 20000 nM.

**Q.** And the Kd (HLA-A*03:01; [19])?
**A.** The Kd was at least 20000 nM.

**Q.** And the Kd (HLA-A*02:12 [2]; [19])?
**A.** The Kd was at least 20000 nM.

**Q.** And the Kd (HLA-B*15:17)?
**A.** The Kd was at least 20000 nM.

**Q.** What about the Kd (HLA-A*02:16 [3]; [19]) of the same sequence?
**A.** The Kd was at least 20000 nM.

**Q.** What about the Kd (HLA-A*69:01 [16]) of the same sequence?
**A.** Its Kd is at least 20000 nM.

**Q.** What about the Kd (HLA-B*46:01; [19]) of the same sequence?
**A.** The Kd was at least 20000 nM.

**Q.** And the Kd (HLA-B*57:01)?
**A.** The Kd was at least 20000 nM.

**Q.** And the Kd (HLA-A*02:11 [4]; [19])?
**A.** Its Kd is at least 20000 nM.

**Q.** What about the Kd (HLA-A*29:02) of the same sequence?
**A.** Its Kd is at least 20000 nM.

**Q.** And the Kd (HLA-A*02:19 [5]; [19])?
**A.** Its Kd is at least 20000 nM.

**Q.** What about the Kd (HLA-B*27:03) of the same sequence?
**A.** The Kd was at least 20000 nM.

**Q.** And the Kd (HLA-A*02:06 [6]; [19])?
**A.** The Kd was 4 nM.

**Q.** And the Kd (HLA-B*51:01)?
**A.** The Kd was at least 20000 nM.

**Q.** And the Kd (HLA-A*02:01 [7]; [19])?
**A.** The Kd was 7000 nM.

**Q.** YRYKMPVME was tested. Which Kd (HLA-B*27:05 [1]; source organism: Giardia lamblia ATCC 50803) did it give?
**A.** Its Kd is 124 nM.

**Q.** And the Kd (HLA-B*73:01)?
**A.** Its Kd is 1620 nM.

**Q.** And the Kd (HLA-B*48:01)?
**A.** The Kd was at least 20000 nM.

Source: the Immune Epitope Database (IEDB)
